A short description of this data set: soluble on expression in E. coli; label from the status in PepcDB or PDB records.
As to “IQQHSTDIETPTGTMRTYVYRPQASGKFPTIIFYSEIFQQTAPIARTAALMAGHGFVVLVPEVFHELNPIGTVLGYDDAGKDKGNQDKWAKPLEHHDSDTQALVNFIQQQDYCSGKIGTMGVCIGGHLAYRAALNKSVLAAACLYATDIHSGDLPSAEGNDSLTRTKDISAELMMIWGKQDPHIPDEGRMMIHKNLIASGNLFSWHEFNASHAFMRDEGERYDPQLALRVYGMSVELFNRTL”, the “soluble on expression in E. coli” value was “not soluble”.

Take “ITTKRGEKGKVKINVKAGFDWNTPVKVPEYASGYDWARLANEARLGRYDSPIYTPEELEIIRSGLDTDLYPNIDWRDLMLKSGAPRYYANISFSGGSDNVRYYVSGQYTSEQGRYKTFSSENKYNTNTTYERYNYRANVDMNITKTTVLKVSVGGWLVNRTTPTRSTGDIWEDFAKFTPLSTPRKWSTGQWPRVDGQDTPEYHMTQRGYHTKWESKVETSVKLEQDLKFITPGLKFEGVFAFDTYNENIIKREKKEEVWEAQKYRDENGKLILKRVVNRSPMNQNKEVRGDKRYYFQASLDYNRLFAHAHRVGVFGMVYQEEKTDVNFDSSDLIGSIPRRNLAYSGRFTYAYKDKYLAEFNWGCTGSENFEHGKQFGFFPAVSAGYVISEEAFMKKALPWIDQFKIRASYGEVGNDVLDGRRFPYVSLIDTDDGGSYSFGEFGTNRVQAYRIRTLGTPNLTWEIAKKYDVGVDFSFFNGKISGALDWFLDKRDDIFMQRKHMPLTTGLADQTPMANVGKMKSYGWEGNIGFTQSIGQVNLQLRANFTYQTTDIIDKDEAANELWYKMDKGFQLNQSRGLIALGLFKDQDEIDRSPKQTSNRPILPGDIKYKDVNGDGVINDDDIVPLGYREVPGLQYGVGLSANWRNWNLSVLFQGTGK”: the “soluble on expression in E. coli” value is “not soluble”.

In the case of “IVKASTYMGKRRIGALISMERETGMTDYVETGIPMNANLTSELLINTFIPNTPLHDGAVIINNDTILAAACYLPLSENPFISKELGTRHRAALGVSEVTDCLTIVVSEETGHISLTKNGE”, the “soluble on expression in E. coli” value is recorded as “soluble”.

For the sequence “KAKTEDFVKAFQVFDKESTGKVSVGDLRYMLTGLGEKLTDAEVDELLKGVEVDSNGEIDYKKFIEDVLRQ”, the “soluble on expression in E. coli” value is given as “soluble”.

With “KANELKPIPFSQRTTPSILDLRKQQATVTQNKIRTDITRFCYGQEAHLDRALAYLGLSPSDEKRPIVTGLRETELNGAYSLILEFDSPLIPIDIWQQKHAKMTKYFAPNVEVKITQPAENRIELELIKTQ”, the “soluble on expression in E. coli” value was “not soluble”.

For the sequence “KASEEGIGGRKTCEYYPCHFEGQNCTFCFCPFYPCENEKTGGKWIQSSRGGRVWSCVDCHLVHKKEIAQKILDCLMHEGDTDELVKVAWKEVMEPIL”, the “soluble on expression in E. coli” value is on record as “not soluble”.

“KCPRCGKSVYAAEKVMGGGKPWHKTCFRCAICGKSLESTNVTDKDGELYCKVCYAKNF”: the “soluble on expression in E. coli” value was “soluble”.

Regarding “KERPEISLPSDFEHTIHVGFDAVTGEFTGMPEQWARLLQTSNITKSEQKKNPQAVLDVLEFYNSKKTSNSQKYMSFTDKS”, the “soluble on expression in E. coli” value is given as “soluble”.

For “KGKKLAVIAVAEHEFNQSENNGPGSAPLDPVDNYYQIREAQAKADIVIVTIHGGNEHFHYPRPGLRKLCKHYIDLGVNAVICHHPHVPGAYEIYNGRPIVYSLGNFVFDTLSMVHEWDVGYMAKLKFNEVD”, the “soluble on expression in E. coli” value is “not soluble”.

Take “KGLDKWGIYVPESAAQSVKDAVFEAGAGAIGDYSQCSFEWQGTGQFLPHHNAQPVVGHPGQLERTEELRVEFVAPARLRTTLIDAIRAAHPYEEPAFDVVSMQSTQDLETAEGLGRVGTLPEPMRFGDFVQQVADALPETSWGIRAAGDPEQMVHTVAVSSGSGDSFLDAVAALGVDVYVTSDLRHHPADESRRAQGPLLIDTAHWASEFPWTYQVQELLAQEFAQLDVEVATLRTDPWNISAHPQLR”: the “soluble on expression in E. coli” value is on record as “not soluble”.

Consider “KIRDELRAERTFIDQALDSLADIFYVIDSAGTVQRCNEQFATLAGYADEKISDLDALSLFPEEEREGVSEAIEEALTTGQSTIEAEFRTAAGKRVPHEFTADRLTDQDGDLIGLVGTGRDIS”, for which the “soluble on expression in E. coli” value is listed as “not soluble”.

Consider “KKMREEGVHEGCMEQIYRMFSQRLYKEDGSAAEVDDMNRLRLDDWELREDIQQHCRELWPQITTENLKELTDYVEYKEEFLKLFGFGVEGVDYEADVNPAVETDFIQI”, for which the “soluble on expression in E. coli” value was “not soluble”.

For the sequence “KKVYLIHGWGANRHAFDDLMPRLPATWPVSAVDLPGHGDAPFAQPFDIEAAADGIAAQIDTSADILGWSLGGLVALYLAARHPDKVRSLCLTASFARLTAAEDYPEGLAAPALGKMVGAFRTDYAKHIKQFLQLQLLHTPDAAEIIGRILPDLARCGTPQALQEALDAAERADARHLLDKIDVPVLLVFGGKDAITPLRMGEYLHRHLKGSRLVVMEKAAHAPFLSHAEAFAALCRDFVEG”, the “soluble on expression in E. coli” value is recorded as “not soluble”.

With “KLKPFNDEKTAKIAEEVQQFYESNATISLNEYLENVGELGYELYLTDGAEKSTYYGGAFRKKDLPDKTIKQVLDGETYHGIDSFDTGIFITGFFDNDVRNTIGVPVQADGKQLALFIRQDPEKQFGELRIF”, the “soluble on expression in E. coli” value was “soluble”.

For “KLNRAIGVIDSGVGGLTVAKELIRQLPKERIIYLGDTARCPYGPRSREEVRQFTWEMTEHLLDLNIKMLVIACNTATAVVLEEMQKQLPIPVVGVIHPGSRTALKVTNTYHVGIIGTIGTVKSGAYEEALKSINNRVMVESLACPPFVELVESGNFESEMAYEVVRETLQPLKNTDIDTLILGCTHYPILGPVIKQVMGDKVQLISSGDETAREVSTILYHSKMLNEGEEQSDHLFLTTGKIGLFKEIASKWFGQPIENVKHIHLEK”, the “soluble on expression in E. coli” value is “soluble”.

With “KLSNGMNGSEAAVHEVPEYTGPLGTSGEEPAPTVEKPEYTGPLGTSGEEPAPTVEKPEYTGPLGTAGEEAAPTVEKPEFTGGVNGTEPAVHEIAEYKGSDSLVTLTTKEDYTYKAPLAQQALPETGNKESDLLASLGLTAFFLGLFTLGKKREQ”, the “soluble on expression in E. coli” value is given as “not soluble”.

Take “KLVFLHGLGQDKTAWNDVIAALPHYDCLALDLFDEGKMPENFTTLVEQVATELKGIEEDFVLIGLSLGAMLALALSDYTFPHIKGFIVSGAQHDLKRSFLYKLQLLGLQLLPKSFFKKQGVKKDSFLAFSKSLSTLDLRETIRQIDIPALILCGQKDKPNLLPARKIAELIPNARLSVIKKGGHLLNTKMPIVFAKEITDFLK”: the “soluble on expression in E. coli” value was “not soluble”.

For “KMERKNVWHHRKKEEIEAFSKEYMEFMSKAKTERMTVKEIKRILDESGFVPLEDFAGDPMNMTVYAVNRGKAIAAFRVVDDLKRGLNLVVAHIDSPRLDFKPNPLIEDEQIALFKTHYYGGIKKYHWLSIPLEIHGVLFKNDGTEIEIHIGDKPEDPVFTIPDLLPHLDKEDAKISEKFKGENLMLIAGTIPLSGEEKEAVKTNVLKILNEMYGITEEDFVSGEIEVVPAFSPREVGMDRSLIGAYGQDDRICAYTALRALLSANPEKSIGVIFFDKEEIGSDGNTGAKARFYLKALRQILKMQGAKDSEFVLDEVLENTSVISGDVCAAVNPPYKDVHDLHNAPKLGYGVALVKYTGARGKYSTNDAHAEFVARVRKVLNEQGVIWQVATLGKVDQGGGGTIAKFFAERGSDVIDMGPALLGMHSPFEISSKADLFETYVAYRSLMEKL”, the “soluble on expression in E. coli” value was “soluble”.

For the sequence “KPGAMYRNSSKPAYTRREYISGIPGKKIAQFDMGNNGAGPTYPAQVELVVEKPVQIRHNALEAARVAANRYVQNSGAAANYKFRIRKFPFHVIRENKAAAAAAAAAAADGMRAPFGKPVGTAARVHGANHIFIAWVNPDPNVEEAWRRAKMKVTPTINIDSSPAGNA”, the “soluble on expression in E. coli” value is listed as “soluble”.

Consider “KPGKQIPTLEDAKKELKIPDQDKEQNGNIARQRHVVNAYAVGRIADEEGLFRFQLDDKGKWGNPQLLVKKVRHMKVRYIYVSGCPEDDDAGKEETFKYTDKFDSAQNAVTPAGVEVLLSSGTDTKIAASSDNHIYAYRIDATIRGGNVCANRTL”, for which the “soluble on expression in E. coli” value is listed as “not soluble”.

For the sequence “KQKRARLIYNPTSGQEIMKKNVAEVLDILESFGYETSAFQTTPRADSAKNEAARASQAGFDLVIAAGGDGTINEVVSGIAPLKRRPKVAIIPTGTTNDFARALKIPRGNPVEATKLIGKNQTIHMDIGRAYND”, the “soluble on expression in E. coli” value is recorded as “not soluble”.

The values above are taken from the DeepSol protein solubility set.
